The values below come from patent publication US20100222256A1 (BIOKINE THERAPEUTICS, published 2010).

The labels stand for the following.
B1: TC14020 (peptide)
peptide: RRXCYRKXPYXXCR
modifications: Nal at 3; D-Cit at 8; Cit at 11 and 12; C-terminal OH as printed; Cys4-Cys13 disulfide (cyclised by air oxidation)
B2: TC14012 (peptide)
peptide: RRXCYXKXPYRXCR
modifications: Nal at 3; L-citrulline at 6; D-citrulline at 8; L-citrulline at 12; C-terminal amide (NH2); Cys4-Cys13 disulfide (cyclised by air oxidation)
B3: TN14005 (peptide)
peptide: RRXCYRKXPYRXCR
modifications: Nal at 3; D-Cit at 8; Cit at 12; C-terminal amide (NH2); Cys4-Cys13 disulfide (cyclised by air oxidation)
B4: TC14005 (peptide)
peptide: RRXCYRKXPYRXCR
modifications: not fully specified; Nal at 3; D-citrulline at 8; L-citrulline at 12; C-terminal OH; Cys4-Cys13 disulfide (cyclised by air oxidation)
B5: TC14018 (peptide)
peptide: XRXCYRKXPYRXCR
modifications: Cit at 1; Nal at 3; D-Cit at 8; Cit at 12; C-terminal amide (NH2); Cys4-Cys13 disulfide (cyclised by air oxidation)
B6: TN14003 (peptide)
peptide: RR[Nal]CY[Cit]K[dK]PYR[Cit]CR-NH2
modifications: disulfide 4-13
B7: TC14003 (peptide)
peptide: RR[Nal]CY[Cit]K[dK]PYR[Cit]CR-OH
modifications: disulfide 4-13
B8: TC14011 (peptide)
peptide: RRXCYXKXPYRXCR
modifications: Nal at 3; Cit at 6; D-Cit at 8; Cit at 12; C-terminal OH; Cys4-Cys13 disulfide (cyclised by air oxidation)

Bridges are numbered along the chain shown (N, C = ends). Where no end group is shown, it is not given here. [ ]: non-standard residue; d: D form. Cit = NC(=O)NCCC[C@H](N)C(=O)O; Nal = naphthylalanine

This test has as its target CXCR4 ligand. In words: cell-based or functional assay.
As for B1, the “EC50 (nM): anti-HIV activity, concentration where MT-4 cell death by HIV-1 (IIIB) infection is inhibited by 50% (MTT method)” value was determined as 2.7 nM.

In the case of B2, the “EC50 (nM): anti-HIV activity, concentration where MT-4 cell death by HIV-1 (IIIB) infection is inhibited by 50% (MTT method)” value is 0.4 nM.

Consider B3, for which the “EC50 (nM): anti-HIV activity, concentration where MT-4 cell death by HIV-1 (IIIB) infection is inhibited by 50% (MTT method)” value was determined as 4.6 nM.

Regarding B4, the “EC50 (nM): anti-HIV activity, concentration where MT-4 cell death by HIV-1 (IIIB) infection is inhibited by 50% (MTT method)” value stood at 4 nM.

For the molecule B5, the “EC50 (nM): anti-HIV activity, concentration where MT-4 cell death by HIV-1 (IIIB) infection is inhibited by 50% (MTT method)” value turned out to be 1.2 nM.

For B6, the “EC50 (nM): anti-HIV activity, concentration where MT-4 cell death by HIV-1 (IIIB) infection is inhibited by 50% (MTT method)” value was determined as 0.6 nM.

For B7, the “EC50 (nM): anti-HIV activity, concentration where MT-4 cell death by HIV-1 (IIIB) infection is inhibited by 50% (MTT method)” value worked out at 2.8 nM.

B8: the “EC50 (nM): anti-HIV activity, concentration where MT-4 cell death by HIV-1 (IIIB) infection is inhibited by 50% (MTT method)” value came to 0.5 nM.
